PMC9002095, “A SIRPαFc Fusion Protein Conjugated With the Collagen-Binding Domain for Targeted Immunotherapy of Non-Small Cell Lung Cancer” (Frontiers in Immunology, 2022)

B1: TKKTLRT–SIRPαFc conjugate (Fc fusion)
chain 1: EEELQVIQPDKSVLVAAGETATLRCTATSLIPVGPIQWFRGAGPGRELIYNQKEGHFPRVTTVSDLTKRNNMDFSIRIGNITPADAGTYYCVKFRKGSPDDVEFKSG
chain 2: TKKTLRTC
modifications: free amino groups joined through Sulfo-SMCC to the cysteine of the peptide TKKTLRTC; one or two peptides on one SIRPαFc (MALDI-TOF-MS); sites not told | sulfhydryl of the C-terminal cysteine joined to the maleimide group of Sulfo-SMCC
B2: human SIRPαFc fusion protein (Fc fusion)
chain: B1 chain 1

Columns and labels:
[1] = biological target: T1, human CD47 (human, UniProt Q08722 19-323); experiment: SPR; Biacore T200; SIRPαFc or CBD–SIRPαFc caught on a CM5 chip activated by EDC-NHS; human CD47 in six concentrations flowed over; conditions: both partners purified
T1 construct: CD47, human, in solution as the analyte of Biacore
T1 sequence (Q08722 19-323): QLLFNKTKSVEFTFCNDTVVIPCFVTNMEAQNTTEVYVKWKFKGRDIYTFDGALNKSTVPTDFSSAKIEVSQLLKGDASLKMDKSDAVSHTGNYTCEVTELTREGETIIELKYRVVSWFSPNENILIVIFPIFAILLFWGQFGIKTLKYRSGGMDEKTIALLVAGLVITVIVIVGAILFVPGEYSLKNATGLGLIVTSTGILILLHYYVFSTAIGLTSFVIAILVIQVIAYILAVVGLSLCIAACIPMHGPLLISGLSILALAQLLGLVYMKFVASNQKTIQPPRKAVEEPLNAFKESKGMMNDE

[2] = biological target: T2, collagen type I (UniProt P02454 152-1207; P02466 86-1125); experiment: ELISA; 96-well plate coated with 100 μg/ml collagen type I or 2% BSA at 4°C overnight, blocked with 2% BSA in PBS-T; SIRPαFc or CBD–SIRPαFc in five concentrations, 37°C, 2 h; detected with HRP anti-human IgG1 Fc antibody; KD by non-linear regression (one-site specific binding); conditions: both partners purified
T2 construct: collagen type I, alpha 1 chain; collagen type I, alpha 2 chain; also called collagen I; source: bought: Corning
T2 sequence (P02454 152-1207, chain 1 of 2): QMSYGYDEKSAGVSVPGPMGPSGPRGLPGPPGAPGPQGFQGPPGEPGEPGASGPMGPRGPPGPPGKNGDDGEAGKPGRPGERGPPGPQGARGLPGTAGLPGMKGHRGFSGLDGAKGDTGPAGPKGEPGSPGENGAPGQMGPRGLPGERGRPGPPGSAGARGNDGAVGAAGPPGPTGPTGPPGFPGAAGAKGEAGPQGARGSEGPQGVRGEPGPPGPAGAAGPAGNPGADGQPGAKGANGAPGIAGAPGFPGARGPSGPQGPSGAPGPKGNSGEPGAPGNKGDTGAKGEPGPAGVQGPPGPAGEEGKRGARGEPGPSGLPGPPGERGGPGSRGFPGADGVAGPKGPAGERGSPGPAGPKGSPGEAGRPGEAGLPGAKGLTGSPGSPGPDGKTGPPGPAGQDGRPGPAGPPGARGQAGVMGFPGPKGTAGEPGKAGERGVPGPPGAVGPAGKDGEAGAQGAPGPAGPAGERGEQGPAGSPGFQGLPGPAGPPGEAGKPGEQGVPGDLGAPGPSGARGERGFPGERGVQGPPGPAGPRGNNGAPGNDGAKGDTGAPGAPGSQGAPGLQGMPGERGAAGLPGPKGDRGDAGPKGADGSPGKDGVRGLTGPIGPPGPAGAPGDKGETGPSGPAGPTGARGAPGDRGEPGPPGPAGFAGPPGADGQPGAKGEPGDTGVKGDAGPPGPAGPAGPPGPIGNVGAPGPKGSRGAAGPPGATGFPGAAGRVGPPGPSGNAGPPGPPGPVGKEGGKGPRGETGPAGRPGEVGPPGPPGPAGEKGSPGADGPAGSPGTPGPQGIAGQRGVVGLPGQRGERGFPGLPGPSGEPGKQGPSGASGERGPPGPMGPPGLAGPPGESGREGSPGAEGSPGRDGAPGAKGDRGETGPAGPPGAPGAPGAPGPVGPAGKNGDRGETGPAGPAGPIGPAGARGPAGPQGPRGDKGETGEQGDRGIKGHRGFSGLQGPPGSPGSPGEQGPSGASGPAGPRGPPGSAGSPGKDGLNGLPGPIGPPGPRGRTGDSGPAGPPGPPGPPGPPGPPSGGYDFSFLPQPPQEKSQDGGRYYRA
T2 sequence (P02466 86-1125, chain 2 of 2): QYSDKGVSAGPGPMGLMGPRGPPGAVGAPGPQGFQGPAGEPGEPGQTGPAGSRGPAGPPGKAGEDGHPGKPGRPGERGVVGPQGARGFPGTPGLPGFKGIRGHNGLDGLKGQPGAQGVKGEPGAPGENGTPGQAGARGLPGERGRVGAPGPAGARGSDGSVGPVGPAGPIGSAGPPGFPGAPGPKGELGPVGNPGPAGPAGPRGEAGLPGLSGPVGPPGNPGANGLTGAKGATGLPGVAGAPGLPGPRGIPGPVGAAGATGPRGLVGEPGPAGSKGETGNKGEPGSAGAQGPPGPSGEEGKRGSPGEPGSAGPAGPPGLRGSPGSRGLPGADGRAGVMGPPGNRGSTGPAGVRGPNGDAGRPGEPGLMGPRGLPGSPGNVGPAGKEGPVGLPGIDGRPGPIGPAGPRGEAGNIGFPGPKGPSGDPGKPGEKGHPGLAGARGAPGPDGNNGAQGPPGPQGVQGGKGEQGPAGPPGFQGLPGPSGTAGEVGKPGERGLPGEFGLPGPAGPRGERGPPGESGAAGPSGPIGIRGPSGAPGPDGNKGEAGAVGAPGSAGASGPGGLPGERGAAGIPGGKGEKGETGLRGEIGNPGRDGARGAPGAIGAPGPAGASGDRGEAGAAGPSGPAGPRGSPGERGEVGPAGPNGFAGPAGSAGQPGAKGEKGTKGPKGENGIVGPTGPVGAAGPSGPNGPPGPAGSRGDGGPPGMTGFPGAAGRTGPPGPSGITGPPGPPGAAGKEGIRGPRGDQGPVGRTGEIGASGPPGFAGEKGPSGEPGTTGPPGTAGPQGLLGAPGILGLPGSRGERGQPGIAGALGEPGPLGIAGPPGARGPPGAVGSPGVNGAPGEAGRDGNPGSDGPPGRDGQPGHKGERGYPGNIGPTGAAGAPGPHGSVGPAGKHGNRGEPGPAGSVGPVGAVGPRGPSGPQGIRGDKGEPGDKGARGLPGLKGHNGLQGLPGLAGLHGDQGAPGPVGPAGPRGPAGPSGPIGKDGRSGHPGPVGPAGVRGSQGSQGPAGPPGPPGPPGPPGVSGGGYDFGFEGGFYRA

Row | Binder | Kd [1] | Kd [2]
1 | B1 | 1.44 nM | 180 nM
2 | B2 | 3.3 nM | –
